B1: EngEF: recombinant endo-α-GalNAcase (O-glycosidase) of Enterococcus faecalis (protein, listed as Enterococcus faecalis)
chain: MKHGKIKRFSTLTLLASATILVPLSTSAEETTNSSTETSSSMVEPTATEEKLWQSDFPGGKTGEWQDVIGKTNRELAGESLAISRDAAAGNNAVSLNLDSPKLADGEVETKFKYTAGSGRTGVIIRGNTKDSWVFVGYNANGKWLVESPNSWNDSISGPTLNEDTNYLLKVRYVGEKITIWLNTTLIYEGEPVLANGDKIPTEAGHVGVRLWYDKKIVNYDYFKNGPVDSIPEIVPEVTQIAPVKVFTKIGVAPKLPKQVKVTYNTGKEANEAVRWNEIDPDAYKEPGTFEVDGTLENTNIKAKASIVVAKDNEAEKGDKISSADLTAVVDPQFPRIIRYEDPQSNQVIFNGQHEKIDQVMIDGKAYKATAEKQKSEANQAVYNVAVPEIGLRFTTTLTVSEGQELAMKLSDIREEGTKIHTISIPNQGLISVNSTDEGATFAGVVMNTGTNANNGNKNGDTIQDLTTTSQEETKKYMYGFLNTANYAASFWTNAYGDGSVDGSDNNRIHKQTKEAATGFVTTLSSGAWTYRPFDAPEDYTTGETPEVKVKFSKDSNDDNRVDWQDAAIGFRSIMNNPMGAEKVPELVNQRIPFNFASQATNPFLVTLDESKRIYNLTDGLGQMNLLKGYQNEGHDSAHPDYGAIGQRPGGEQALNQLIDEGHKLNAVFGVHINDTESYPEAKGFNEELVDPTKRGWDWLDPSYFIKQRPDTLSGRRYERFKELKQKAPNLDYIYVDVWGNQGESGWASRQLSKEINSLGWFTTNEFPNALEYDSVWNHWSAEKDYGGTTTKGFNSTIVRFIRNHQKDTWIISDNPLLGGAEFEAYEGWVGKTNFNTYRQKTFAINVPTKFLQHYQITNWETTTAADGQIYGTIKLANGAEKVTVTQADANSPRSITLNETEVLKGDAYLLPWNVNGQDKLYHWNPKGGTSTWSLDKKMQGKTNLHLYELTDQGRIDKGAIATTNNQVTIQAEANTPYVIAEPDSIEPMTFGTGTPFKDPGFNEANTLKNNWKVFRGDGEVKKDANGDYVFSSEKERTEIKQDINLPKPGKYSLYLNTETHDRKATVTVKIGGKKYTRTVNNSVAQNYIQADINHTSRKNPQYMQNMRIDFEIPDNAKKGSVTLAVDKGNSVTKFDDLRIVERQTDIMNPDKQTVIKQDFEDTQAVGLYPFVKGSAGGVEDPRIHLSERNEPYTQYGWNGNLVSDVLEGNWSLKAHKQGAGLMLQTIPQNIKFEPNKKYTVQFDYQTDGENVFTAGTINGELKNNNDFKPVGELTSTAADGQTKHYEAEIIGDASGNTTFGIFTTGADKDFIMDNFTVTVESKK
B2: EngPA: recombinant endo-α-GalNAcase of Propionibacterium acnes (protein)
chain: MSRTPRGRSIGALAVSAGTMLALIAPTAPAHAETRYRQINQAAITAVAADSATATDPISNTLDGNPDTIWHTTWQNGKDPLPHWIVFKLGDEAVNLGKVEITPRSSSNGSGRMHDYELYTANTKTCNNAAFSSAKPVATGSYGASDTSIRKITFAATKATCVKVKVNSSWGGDGSDEEVSSMAEFNAFTVDGSDPSPDPTPSEPPTPEVPKDAISLSDGTVTVRARRDFPQVIDYTVGHAHMAGRIGSPLTKVRINGADHVATVSAPTTTGSSASWKLTFRDLPGVELTADIKVSDGVMTWSIPHIVDTPDHRVNTVSVPGLTLASVTSTDPKAQLSSANIVVDRNKTGDLFQPLATADVSQDTSWVAMANDSTLAAGFEDNATQDGLVGSAATVARFVHSISQVGGTKVGAIEPATWVHRGKGSATPFPTDSLGNKAVCQLPGGATVKDGIGPDPDTPYVRVKIVADANADGKVDWQDAAVATRDVTMKPTGSGDVANKVITHIPFNIVSQATHPFLRTLDDVKRISLATDGLGQQALLKGYQAEGHDSAHPDYGGNVSHRAGGMKDLEKLTESGRQWNTDFGIHVNLVESYPEANHFGDNILVKPYQKAWDWMEQSYRMDYAKDLGSGQLFARLNQLRKELGAKSNLDWLYFDTNYPAGWQNDRIANALNAEGWRIGSEWSSTYPRYNQWSHWANDENYGTGNKGYSSRIIRFIDNSRRDTWNPDPILGNSNVVEYEGWTSHNDYNAFIANVWQRNLPTKFLQRSDIMSWQDGRIAFANGAVATSSKKSISGHEIPTARTITFDGATVFKEGGSYLLPWSNGGSDRLYYWNPGNGSATWKLTNSWAAQKSVSLFMLTDTGRVKVAEIPVTNRSIRIPATKAKTAYVLYPTSKVPAAKTPNWGEGSHFANPGFYSGDTAGWNARGNVSVKHNDRGNFHLEFGKAQSQISQVLNLPAGDHSLWAWVQIDPTKTRPVGLAVDGTGVTPIDHQKGCGGHAESVITSTTAINATASDEYFGTYHQRLRVAFHSDGRPVTVTLKALAGNAIVSADDFRVVDAAVPSDPHVTPATVLFQNFEDVDTGYWPFVTGSAGMEGDARTQLSRRHEPYTQKGWNGRAMDSVLSGDWSLKMHEERNGIVLRTTTASAPLTGGGTRYRISFDYQADKPGYSFVTGHDKVSGKSVKEVITESHAMGVATSTTHFSTDIVVKDQPAWIGFTHQGEGDMSIDNLRIEKLDPRPISVTSTQAAVFPDACKPTPEPIQPAQPSASAPTTSGSPQAPGTGNRPNRYALPRTGADGAGLGFSSSEAASATAAVGVSRQGR
modifications: Propionibacterium acnes

Assays:
[1] = biological target: Propionibacterium acnes endo-α-GalNAcase EngPA (YP_056270.1), SEQ ID NO:3 (Cutibacterium acnes, UniProt A0ABM7H013); assay: Steady-state enzyme kinetics of EngPA; details: EngPA compared with EngEF
[2] = tested on: Bifidobacterium longum endo-α-GalNAcase EngBF, SEQ ID NO:5; details: Core 1 substrate; data from Fujita et al. (2005); cited from earlier work
[3] = tested on: CC(=O)N[C@H]1[C@@H](Oc2ccc([N+](=O)[O-])cc2)O[C@H](CO)[C@H](O)[C@@H]1O[C@@H]1O[C@H](CO)[C@H](O)[C@H](O)[C@H]1O; assay: purified protein, by the assay type; details: 25.0 °C
[4] = Hydrolysis of pNP substrates, colorimetric assay (Core 2); format: biochemical; details: Galβ1,3(GlcNAcβ1,6)GalNAcα1pNP Core 2, 25° C., 16 h, 405 nm
[5] = Hydrolysis of pNP substrates, colorimetric assay (Core 3); format: biochemical
[6] = Transglycosylation to 1-alkanols, Core 3 donor (TLC); format: biochemical; details: 0.8 mM GlcNAcβ1,3GalNAcα1ρNP donor, 1-alkanols as acceptors, room temperature, 16 h
Excerpt: The transglycosylation activity can be similarly determined for EngAA*.

[7] = Hydrolysis of pNP substrates, colorimetric assay (Galβ1,3GlcNAc); format: biochemical
[8] = Hydrolysis of pNP substrates, colorimetric assay (Core 1); format: biochemical; details: Galβ1,3GalNAcα1pNP Core 1, 0.25 mM substrate, 25° C., 16 h, 405 nm
[9] = Hydrolysis of pNP substrates, colorimetric assay (GalNAc); format: biochemical; details: GalNAcα1pNP, 25° C., 16 h, 405 nm
[10] = tested on: CC(=O)N[C@H]1[C@H](O[C@H]2[C@@H](O)[C@@H](CO)O[C@H](Oc3ccc([N+](=O)[O-])cc3)[C@@H]2NC(C)=O)O[C@H](CO)[C@@H](O)[C@@H]1O; assay: purified protein, by the assay type; details: other: Core 3 substrate, 25° C., average of three measurements

Molecule	% product released [4] [%]	% product released [5] [%]	transglycosylation products [6]	% product released [7] [%]	% product released [8] [%]	% product released [9] [%]	also measured
CC(=O)N[C@H]1[C@@H](Oc2ccc([N+](=O)[O-])cc2)O[C@H](CO)[C@H](O)[C@@H]1O[C@@H]1O[C@H](CO)[C@H](O)[C@H](O)[C@H]1O [Galβ1,3GalNAcα1ρNP]							kcat, times lower than EngEF ([1]; Core 1 substrate): about 25 times; Km [2]: 21.8 µM; kcat [2]: 17.8 s⁻¹
CC(=O)N[C@H]1[C@H](O[C@H]2[C@@H](O)[C@@H](CO)O[C@H](Oc3ccc([N+](=O)[O-])cc3)[C@@H]2NC(C)=O)O[C@H](CO)[C@@H](O)[C@@H]1O [GlcNAcβ1,3GalNAcα1ρNP]							kcat, times higher than EngEF ([1]; Core 3 substrate): 3 times
Clostridium perfringens endo-α-GalNAcase EngCP (YP_695137.1), SEQ ID NO:6 (Clostridium perfringens ATCC 13124)							Km [3]: 70.93 µM; kcat [3]: 19.9 s⁻¹
EngSP: endo-α-GalNAcase from Streptococcus pneumoniae, purchased from Roche [reference compound]	0.6	3	no significant difference	0	100	1.2	
Enterococcus faecalis endo-α-GalNAcase EngEF (NP_815498.1), SEQ ID NO:2 (Enterococcus faecalis V583)							kcat [10]: 9.43 s⁻¹
Propionibacterium acnes endo-α-GalNAcase EngPA (YP_056270.1), SEQ ID NO:3 (Cutibacterium acnes subsp. acnes)							kcat [10]: 28.9 s⁻¹
B1	2	100	no significant difference	0	100	2.2	hydrolysis of the Core 3 disaccharide (in words) [5]: fully hydrolyzing
B2	0	100	no significant difference	0	100	1.8	hydrolysis of the Core 3 disaccharide (in words) [5]: fully hydrolyzing
